Laboratory results as given in patent publication US20150344570A1 (published 2015).

B1: GpH7-A5/GpH7-B3 variant E269_01G/GpL16-k0 (antibody, human IgG1, kappa)
heavy 1: not shown
heavy 2: not shown
light: DIVMTQSPLSLPVTPGEPASISCQASESLVHSNRNTYLHWYLQKPGQSPQLLIYKVSNRFSGVPDRFSGSGSGTDFTLKISRVEAEDVGVYYCSQNTHVPPTFGQGTKVEIERTVAAPSVFIFPPSDEQLKSGTASVVCLLNNFYPREAKVQWKVDNALQSGNSQESVTEQDSKDSTYSLSSTLTLSKADYEKHKVYACEVTHQGLSSPVTKSFNRGEC
notes: also called He Ab E269_01G
B2: GpH7-A5/GpH7-B3 variant E269_05P/GpL16-k0 (antibody, human IgG1, kappa)
heavy 1: not shown
heavy 2: not shown
light: B1 light
notes: also called He Ab E269_05P
B3: GpH7-A5/GpH7-B3 variant E333_12R/GpL16-k0 (antibody, human IgG1, kappa)
heavy 1: not shown
heavy 2: not shown
light: B1 light
notes: also called He Ab E333_12R
B4: GpH7-A5/GpH7-B3 variant E269_13S/GpL16-k0 (antibody, human IgG1, kappa)
heavy 1: not shown
heavy 2: not shown
light: B1 light
notes: also called He Ab E269_13S
B5: GpH7-A5/GpH7-B3 variant E269_09D/GpL16-k0 (antibody, human IgG1, kappa)
heavy 1: not shown
heavy 2: not shown
light: B1 light
notes: also called He Ab E269_09D
B6: GpH7-A5/GpH7-B3 variant E269_14T/GpL16-k0 (antibody, human IgG1, kappa)
heavy 1: not shown
heavy 2: not shown
light: B1 light
notes: also called He Ab E269_14T
B7: GpH7-A5/GpH7-B3 variant A330_16H/GpL16-k0 (antibody, human IgG1, kappa)
heavy 1: not shown
heavy 2: not shown
light: B1 light
notes: also called He Ab A330_16H
B8: GpH7-A5/GpH7-B3 variant E333_05P/GpL16-k0 (antibody, human IgG1, kappa)
heavy 1: not shown
heavy 2: not shown
light: B1 light
notes: also called He Ab E333_05P
B9: GpH7-A5/GpH7-B3 variant E269_19Q/GpL16-k0 (antibody, human IgG1, kappa)
heavy 1: not shown
heavy 2: not shown
light: B1 light
notes: also called He Ab E269_19Q
B10: GpH7-A5/GpH7-B3 variant A330_09D/GpL16-k0 (antibody, human IgG1, kappa)
heavy 1: not shown
heavy 2: not shown
light: B1 light
notes: also called He Ab A330_09D
B11: GpH7-A5/GpH7-B3 variant A330_11K/GpL16-k0 (antibody, human IgG1, kappa)
heavy 1: not shown
heavy 2: not shown
light: B1 light
notes: also called He Ab A330_11K
B12: GpH7-A5/GpH7-B3 variant E269_20W/GpL16-k0 (antibody, human IgG1, kappa)
heavy 1: not shown
heavy 2: not shown
light: B1 light
notes: also called He Ab E269_20W
B13: GpH7-A5/GpH7-B3 variant E333_13S/GpL16-k0 (antibody, human IgG1, kappa)
heavy 1: not shown
heavy 2: not shown
light: B1 light
notes: also called He Ab E333_13S
B14: GpH7-A5/GpH7-B3 variant E269_18N/GpL16-k0 (antibody, human IgG1, kappa)
heavy 1: not shown
heavy 2: not shown
light: B1 light
notes: also called He Ab E269_18N
B15: GpH7-A5/GpH7-B3 variant E333_15Y/GpL16-k0 (antibody, human IgG1, kappa)
heavy 1: not shown
heavy 2: not shown
light: B1 light
notes: also called He Ab E333_15Y
B16: GpH7-A5/GpH7-B3 variant E333_09D/GpL16-k0 (antibody, human IgG1, kappa)
heavy 1: not shown
heavy 2: not shown
light: B1 light
notes: also called He Ab E333_09D
B17: GpH7-A5/GpH7-B3 variant E333_04F/GpL16-k0 (antibody, human IgG1, kappa)
heavy 1: not shown
heavy 2: not shown
light: B1 light
notes: also called He Ab E333_04F
B18: GpH7-A5/GpH7-B3 variant A327_10E/GpL16-k0 (antibody, human IgG1, kappa)
heavy 1: not shown
heavy 2: not shown
light: B1 light
notes: also called He Ab A327_10E
B19: GpH7-A5/GpH7-B3 variant A330_05P/GpL16-k0 (antibody, human IgG1, kappa)
heavy 1: not shown
heavy 2: not shown
light: B1 light
notes: also called He Ab A330_05P
B20: GpH7-A5/GpH7-B3 variant E269_08L/GpL16-k0 (antibody, human IgG1, kappa)
heavy 1: not shown
heavy 2: not shown
light: B1 light
notes: also called He Ab E269_08L
B21: GpH7-A5/GpH7-B3 variant E269_03V/GpL16-k0 (antibody, human IgG1, kappa)
heavy 1: not shown
heavy 2: not shown
light: B1 light
notes: also called He Ab E269_03V
B22: GpH7-A5/GpH7-B3 variant E269_04F/GpL16-k0 (antibody, human IgG1, kappa)
heavy 1: not shown
heavy 2: not shown
light: B1 light
notes: also called He Ab E269_04F
B23: GpH7-A5/GpH7-B3 variant E333_07I/GpL16-k0 (antibody, human IgG1, kappa)
heavy 1: not shown
heavy 2: not shown
light: B1 light
notes: also called He Ab E333_07I
B24: GpH7-A5/GpH7-B3 variant A327_13S/GpL16-k0 (antibody, human IgG1, kappa)
heavy 1: not shown
heavy 2: not shown
light: B1 light
notes: also called He Ab A327_13S
B25: GpH7-A5/GpH7-B3 variant E269_02A/GpL16-k0 (antibody, human IgG1, kappa)
heavy 1: not shown
heavy 2: not shown
light: B1 light
notes: also called He Ab E269_02A
B26: GpH7-A5/GpH7-B3 variant E333_02A/GpL16-k0 (antibody, human IgG1, kappa)
heavy 1: not shown
heavy 2: not shown
light: B1 light
notes: also called He Ab E333_02A
B27: GpH7-A5/GpH7-B3 variant A327_06M/GpL16-k0 (antibody, human IgG1, kappa)
heavy 1: not shown
heavy 2: not shown
light: B1 light
notes: also called He Ab A327_06M
B28: GpH7-A5/GpH7-B3 variant E269_06M/GpL16-k0 (antibody, human IgG1, kappa)
heavy 1: not shown
heavy 2: not shown
light: B1 light
notes: also called He Ab E269_06M
B29: GpH7-A5/GpH7-B3 variant E269_16H/GpL16-k0 (antibody, human IgG1, kappa)
heavy 1: not shown
heavy 2: not shown
light: B1 light
notes: also called He Ab E269_16H
B30: GpH7-A5/GpH7-B3 variant E333_08L/GpL16-k0 (antibody, human IgG1, kappa)
heavy 1: not shown
heavy 2: not shown
light: B1 light
notes: also called He Ab E333_08L
B31: GpH7-A5/GpH7-B3 variant A327_09D/GpL16-k0 (antibody, human IgG1, kappa)
heavy 1: not shown
heavy 2: not shown
light: B1 light
notes: also called He Ab A327_09D
B32: GpH7-A5/GpH7-B3 variant E333_14T/GpL16-k0 (antibody, human IgG1, kappa)
heavy 1: not shown
heavy 2: not shown
light: B1 light
notes: also called He Ab E333_14T
B33: GpH7-A5/GpH7-B3 variant E269_15Y/GpL16-k0 (antibody, human IgG1, kappa)
heavy 1: not shown
heavy 2: not shown
light: B1 light
notes: also called He Ab E269_15Y
B34: GpH7-A5/GpH7-B3 variant E269_07I/GpL16-k0 (antibody, human IgG1, kappa)
heavy 1: not shown
heavy 2: not shown
light: B1 light
notes: also called He Ab E269_07I
B35: GpH7-A5/GpH7-B3 variant A327_03V/GpL16-k0 (antibody, human IgG1, kappa)
heavy 1: not shown
heavy 2: not shown
light: B1 light
notes: also called He Ab A327_03V
B36: GpH7-A5/GpH7-B3 variant E333_01G/GpL16-k0 (antibody, human IgG1, kappa)
heavy 1: not shown
heavy 2: not shown
light: B1 light
notes: also called He Ab E333_01G
B37: GpH7-A5/GpH7-B3 variant E333_11K/GpL16-k0 (antibody, human IgG1, kappa)
heavy 1: not shown
heavy 2: not shown
light: B1 light
notes: also called He Ab E333_11K
B38: GpH7-A5/GpH7-B3 variant E333_03V/GpL16-k0 (antibody, human IgG1, kappa)
heavy 1: not shown
heavy 2: not shown
light: B1 light
notes: also called He Ab E333_03V
B39: GpH7-A5/GpH7-B3 variant A330_08L/GpL16-k0 (antibody, human IgG1, kappa)
heavy 1: not shown
heavy 2: not shown
light: B1 light
notes: also called He Ab A330_08L
B40: GpH7-A5/GpH7-B3 variant E333_06M/GpL16-k0 (antibody, human IgG1, kappa)
heavy 1: not shown
heavy 2: not shown
light: B1 light
notes: also called He Ab E333_06M
B41: GpH7-A5/GpH7-B3 variant A327_07I/GpL16-k0 (antibody, human IgG1, kappa)
heavy 1: not shown
heavy 2: not shown
light: B1 light
notes: also called He Ab A327_07I
B42: GpH7-A5/GpH7-B3 variant A330_14T/GpL16-k0 (antibody, human IgG1, kappa)
heavy 1: not shown
heavy 2: not shown
light: B1 light
notes: also called He Ab A330_14T
B43: GpH7-B3 variant Q295_15Y/GpL16-k0 (antibody, human IgG1, kappa)
heavy: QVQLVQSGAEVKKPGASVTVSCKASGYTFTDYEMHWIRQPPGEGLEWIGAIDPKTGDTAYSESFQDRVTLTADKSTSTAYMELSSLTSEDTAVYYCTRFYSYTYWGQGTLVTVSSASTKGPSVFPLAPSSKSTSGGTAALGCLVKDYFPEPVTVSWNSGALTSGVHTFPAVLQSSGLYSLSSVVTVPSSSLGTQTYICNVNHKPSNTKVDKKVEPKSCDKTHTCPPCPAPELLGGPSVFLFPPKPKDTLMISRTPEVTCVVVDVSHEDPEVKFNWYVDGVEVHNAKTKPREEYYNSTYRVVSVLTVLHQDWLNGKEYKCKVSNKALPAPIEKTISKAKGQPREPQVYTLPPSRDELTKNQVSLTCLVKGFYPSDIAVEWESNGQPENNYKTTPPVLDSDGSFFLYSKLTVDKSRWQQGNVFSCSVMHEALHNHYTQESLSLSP
light: B1 light
notes: also called Ho Ab Q295_15Y
B44: GpH7-B3 variant Q295_16H/GpL16-k0 (antibody, human IgG1, kappa)
heavy: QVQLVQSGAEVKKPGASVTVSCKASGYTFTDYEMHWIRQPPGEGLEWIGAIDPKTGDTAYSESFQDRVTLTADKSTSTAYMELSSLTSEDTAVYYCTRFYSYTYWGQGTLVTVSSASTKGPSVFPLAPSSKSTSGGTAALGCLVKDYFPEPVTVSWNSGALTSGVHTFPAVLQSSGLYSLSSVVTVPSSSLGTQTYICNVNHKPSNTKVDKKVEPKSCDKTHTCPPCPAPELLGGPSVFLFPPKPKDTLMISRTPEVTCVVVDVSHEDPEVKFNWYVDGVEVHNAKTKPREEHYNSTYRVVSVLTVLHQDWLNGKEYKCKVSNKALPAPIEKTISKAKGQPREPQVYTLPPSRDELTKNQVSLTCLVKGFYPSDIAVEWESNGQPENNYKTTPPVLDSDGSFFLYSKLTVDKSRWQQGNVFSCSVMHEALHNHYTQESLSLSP
light: B1 light
notes: also called Ho Ab Q295_16H

molecular target: T1, FcγRIa (human, UniProt P12314 16-292); assay: SPR (Biacore); He Ab relative to HeCon Ab = 100
T1 construct: extracellular domain; also called FcgRI; 1a
Procedure: Analysis of interaction between objective antibody and the FcγR was carried out using Biacore T100 (GE Healthcare). HBS-EP+ (GE Healthcare) was used as the running buffer, and the measurement temperature was set to 25° C. Chips produced by immobilizing the antigen peptide by the amine coupling method to a Series S Sencor Chip CM5 (GE Healthcare), or alternatively, chips produced by allowing preliminarily biotinylated antigen peptides to interact with and immobilize onto a Series S Sensor Chip SA (certified) (GE Healthcare) were used. Antibodies of interest were captured onto an antigen peptide-immobilized chip, and allowed to interact to each FcγR diluted with running buffer. To regenerate and repeatedly use the chip, the antibodies captured on the chip were washed off by reacting 10 mM glycine-HCl, pH 1.5.

T1 sequence (P12314 16-292): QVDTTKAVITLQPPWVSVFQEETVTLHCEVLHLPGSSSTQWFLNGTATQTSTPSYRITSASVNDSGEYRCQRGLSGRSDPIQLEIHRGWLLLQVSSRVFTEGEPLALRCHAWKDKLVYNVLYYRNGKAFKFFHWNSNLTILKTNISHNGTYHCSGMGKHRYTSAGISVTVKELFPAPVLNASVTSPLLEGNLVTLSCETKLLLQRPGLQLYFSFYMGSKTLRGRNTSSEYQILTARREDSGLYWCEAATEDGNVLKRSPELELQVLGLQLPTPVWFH

Row | He/Con_1a | Binder
1 | 104 % of control | B1
2 | 102 % of control | B2
3 | 102 % of control | B3
4 | 103 % of control | B4
5 | 107 % of control | B5
6 | 106 % of control | B6
7 | 106 % of control | B7
8 | 102 % of control | B8
9 | 105 % of control | B9
10 | 109 % of control | B10
11 | 103 % of control | B11
12 | 105 % of control | B12
13 | 103 % of control | B13
14 | 102 % of control | B14
15 | 101 % of control | B15
16 | 104 % of control | B16
17 | 102 % of control | B17
18 | 103 % of control | B18
19 | 101 % of control | B19
20 | 104 % of control | B20
21 | 103 % of control | B21

Row | He/Con_1a | Binder
22 | 103 % of control | B22
23 | 102 % of control | B23
24 | 102 % of control | B24
25 | 104 % of control | B25
26 | 103 % of control | B26
27 | 103 % of control | B27
28 | 104 % of control | B28
29 | 106 % of control | B29
30 | 102 % of control | B30
31 | 103 % of control | B31
32 | 102 % of control | B32
33 | 106 % of control | B33
34 | 103 % of control | B34
35 | 103 % of control | B35
36 | 103 % of control | B36
37 | 102 % of control | B37
38 | 105 % of control | B38
39 | 107 % of control | B39
40 | 102 % of control | B40
41 | 104 % of control | B41
42 | 105 % of control | B42

molecular target: T1, FcγRIa; assay: SPR (Biacore); Ho Ab relative to HoCon Ab = 100
Procedure, shortened: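 SPR, 25° C, HBS-EP+; Ab captured via immobilized antigen peptide (CM5 amine coupling or SA/biotin); FcγR in running buffer as analyte; regen 10 mM glycine-HCl pH 1.5.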

Row | Ho/Con_1a | Binder
43 | 97 % of control | B43
44 | 99.1 % of control | B44
